Potency (nM), cAMP accumulation in CHO-GLP-1R cells data for three substances are collected here from patent US20090239795A1.

The target of the assay is rat GLP-1 receptor (rat) (UniProt P32301). Nature of the assay: cell-based or functional assay.
Regarding “Exendin-4(1-30) (PEAPTD)2 mTf fusion protein (ligand)”, the Potency (nM), cAMP accumulation in CHO-GLP-1R cells amounted to 0.85 nM.

With “GLP-1(7-37,A8G,K34A) (PEAPTD)2 (SEQ ID NO: 5) mTf fusion protein (from UniProt P01275 98-128) (ligand)”, the Potency (nM), cAMP accumulation in CHO-GLP-1R cells was 1.3 nM.

“Exendin-4(1-31) (PEAPTD)2 mTf fusion protein (ligand)” registered a Potency (nM), cAMP accumulation in CHO-GLP-1R cells of 0.33 nM.
